Assay results reported in the supplement of paper PMC7125110.
± gives the standard error. This sample holds only a part of the variants without activity.

B1: glmS ribozyme (parent)
chain: AUAAAAGCGCCAGAACUACAGAAAUGUAGUUGACGAGGAGGAGGUUUAUCGAAUUUUCGGCGGAUGCCUCCAAA

Variants of: B1
Experiment: self-cleavage kobs at 2500 uM GlcN6P; higher = faster cleavage; RNA array
Conditions: with glucosamine-6-phosphate
Summary of the method: (§1)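 Barcoded ribozyme variants on sequenced MiSeq chips were transcribed in situ by E. coli RNA polymerase and followed at 37 °C through a hybridised Cy3 probe. Glucosamine-6-phosphate at 40 μM to 10 mM in HEPES/KCl/Mg(OAc)2 buffer was flowed in, and tiles were imaged over ~14 h. Signals were normalised to baseline and to non-cleaving reference variants, and per-tile medians were fit to one- or two-exponential decays to give kobs. Weighted Michaelis–Menten fits across concentrations gave kcat and KM.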

Variant | self-cleavage kobs at 2500 uM GlcN6P [s⁻¹]
G29U A33C G44C | 0.000325 ± 0.00014
G41A C61A G62A | < 1e-05
G7U C8U G41C C70G | < 1e-05
A6G G32C C67U C71G | < 1e-05
G32U A64G G66A | 0.000236 ± 5.9e-05
U65G C67G C68G | 3.55e-05 ± 1.4e-05
C16G U30C C34G U55C C61U C67U | < 1e-05
C11U U54A C70G | 9.38e-05 ± 2.4e-05
C19A A53C C71A | 0.000384 ± 0.00012
G32A A39U U69A | < 1e-05
G37C U47C C58A | < 1e-05
U30G U31A G35A A39G G51C G59A | < 1e-05
G37A A39C G40C G41A U45C G51U C58G | < 1e-05
A6G A52G G62C | < 1e-05
G44U U45G C70U | 0.000791 ± 0.00023
C34U G63U A64G | 0.000111 ± 3.8e-05
C10G G41A | < 1e-05
C8A A12C A36U G59U | < 1e-05
G32U A39U C50A | < 1e-05
C11U A15G G43A C67G | 0.000114 ± 3.9e-05
G13U A48G U57G | < 1e-05
A15C A39U C50G A53G | < 1e-05
U30A A33U C34A A36C G37C U57G | < 1e-05
A12G C16U G29A G40A A42U U45G | 8.49e-05 ± 2.3e-05
A14G A33G A36U A42U U46A | < 1e-05
A36G A52U A64G | < 1e-05

Variant | self-cleavage kobs at 2500 uM GlcN6P [s⁻¹]
G9C U45A | < 1e-05
U31A U47C U56C | 0.000498 ± 0.00011
A12U A15U U47C | 0.000776 ± 0.00023
G32C A53C U65C | < 1e-05
G9C U46A C71U | < 1e-05
A33U G43U U65C | < 1e-05
C16U G40A U69C | 3.52e-05 ± 1.7e-05
G37C A42C U69A | < 1e-05
A14G U30A C50A | 8.06e-05 ± 2.8e-05
A6G C11A U49G | < 1e-05
A6G A14G G40A | 3.86e-05 ± 1.1e-05
A6U A15G A53G | 0.000262 ± 4.9e-05
C16G A39C C61U G63C | < 1e-05
C11U C16U A53C C68A C70G | < 1e-05
G13A U54G C68A | 7.33e-05 ± 2.7e-05
A12G G51U U56G | < 1e-05
A15C A42G C67U | 0.000389 ± 9.9e-05
A15C A23C | 0.00398 ± 0.0014
A6U C16G A36U G41U G43C | < 1e-05
A12U U65G C70A | 6.44e-05 ± 2.6e-05
U49C U55C C70G | < 1e-05
C11A C50U C61U C67G | 0.000136 ± 5.6e-05
A15G G44A U65A | 8e-05 ± 2e-05
U46G U55C G66A | 0.00233 ± 0.00084
A14U U45G A53C U65C | < 1e-05
G13U A15U C71U | 5.99e-05 ± 2.5e-05

Variant | self-cleavage kobs at 2500 uM GlcN6P [s⁻¹]
G7A G9U A33C U47G | < 1e-05
G37C A42C A48C A64U | < 1e-05
C10G G35A G66A | < 1e-05
G35A C50A U55C G62A A64U | < 1e-05
A36G C50G C67G | 0.000124 ± 5.6e-05
C11G G26U G43C | < 1e-05
C10U U45A | 2.72e-05 ± 1.3e-05
A6G G40A A48G A53G C67U | < 1e-05
G29C A42U U47A | < 1e-05
G37A C50G U54C | 0.000123 ± 4.8e-05
G9U U30A G38A G40C U56A C70A | < 1e-05
A12U G62C C70G | < 1e-05
G26U U30A A52G C71G | 0.000299 ± 0.00014
A14G G41A G60U | < 1e-05
G29U U47G C50G G63C | 0.000136 ± 5.4e-05
U30C G40A G43A C68A | < 1e-05
A6C C8G G66A C70U | < 1e-05
C8U U46G C61U | < 1e-05
A12G A14C A15C | 6.38e-05 ± 2.6e-05
G13C G32U G38U U47G A48U | < 1e-05
G35C U46G U56A | < 1e-05
C11A A12U G32U C50U U56A C58A | < 1e-05
U31G C58A C67G | 6.38e-05 ± 2e-05
C10G A33G G51U | < 1e-05
G32C U54C G63U | < 1e-05
G32C A36G U47C | < 1e-05

Variant | self-cleavage kobs at 2500 uM GlcN6P [s⁻¹]
G29C G51U C67G | 5.96e-05 ± 2.8e-05
C10U C11A C70A | 7.8e-05 ± 2.7e-05
A15G A39U G41A | 0.000369 ± 0.0001
C34A G37U A39U U57C C67A | < 1e-05
A12C G44C U65C | < 1e-05
A12G U54C U65G | 3.01e-05 ± 1.2e-05
A6C A52U G60A | < 1e-05
A15U A48C G59A G60U | < 1e-05
A39G G40C G41C U46G A52G | < 1e-05
A6G G9C C70G | < 1e-05
G9C C11A G44U G63A C67U | < 1e-05
G51U G59C G66U | < 1e-05
A14U G35C U65G G66U U69G | < 1e-05
A33U C67A U69A | < 1e-05
G43C A53U C58G A64G | < 1e-05
G35U A36U A53U G63C | < 1e-05
G7U C16U A33U | < 1e-05
G41U G51U G62C | < 1e-05
C8U A14U G32U G41C C67U | < 1e-05
G13U U31G G37C A48C | < 1e-05
G32U G44C U47G | < 1e-05
G29C A64G G66U | 4.43e-05 ± 1.8e-05
G7U G35U G37C U46C C68A | < 1e-05
C11G G37U A53C | < 1e-05
A6U U56A G63U | < 1e-05
A39U U46G C70A | 0.000101 ± 2.8e-05

Variant | self-cleavage kobs at 2500 uM GlcN6P [s⁻¹]
C8U C11U A39C G51A G62C | < 1e-05
G9C U49A G51A C70U C71A | < 1e-05
C8A C58A G59C | < 1e-05
G32A A39U U56A | 5.98e-05 ± 1.5e-05
U30C G44U U45G U69G | < 1e-05
U47C U56A A64G | 0.000616 ± 0.00019
U49A U54G | 4.22e-05 ± 1.9e-05
C34A U69A | < 1e-05
G29A A48U A53U C58A G59U | < 1e-05
A14G A39U C71G | 0.00129 ± 0.00041
C10G G41C G51A C61G | < 1e-05
G13U A14G U47C | 8e-05 ± 2.7e-05
G29C G40C U54A | 6.31e-05 ± 2.5e-05
C10G G43A A52G A53C C70U | < 1e-05
U47C C58A C68U | 3.93e-05 ± 1.6e-05
C34U G35A | < 1e-05
C50U C70U C71A | 0.000152 ± 4e-05
G38U U55A G62A U69G | 0.0012 ± 0.00058
A15U G40A A52C G66U | < 1e-05
G38C G41U A42G | < 1e-05
A6G A42U A48C U54C U69A | < 1e-05
G51U A52U U54G U55C | < 1e-05
A12G G62A U69A C70A | 0.000135 ± 5.1e-05
A15U A39C U45A | 0.000454 ± 0.00014
C8A G13C U46G U56A U69C C70G | < 1e-05
A6U C8U A52U C67U C71U | < 1e-05

Variant | self-cleavage kobs at 2500 uM GlcN6P [s⁻¹]
G35A G38C C58U | < 1e-05
A12G A15U G35A | < 1e-05
G44U U49C C61A | < 1e-05
A12G A53U U55G | 0.000166 ± 2.9e-05
U31C G38A U47G G51C | < 1e-05
C16U U30C C50A | < 1e-05
A12G G35U C67A | < 1e-05
A12U A14U G66A | 0.000704 ± 0.00016
A36C A39U G40C A42G U46C U69G | < 1e-05
C10U G13A A33U | < 1e-05
A33G C34A U46A C61A | < 1e-05
G29U C58G C71A | 0.000118 ± 3.2e-05
A6U C8U C16U U30C G44U U55A C67G | < 1e-05
G13U G35A U57A U65G | < 1e-05
G9A G51U U56G G63C | < 1e-05
A39U G66A C70G | 0.000771 ± 0.00023
C11G U31A A42C | < 1e-05
C34U U45G | < 1e-05
G29U G35A A42U | < 1e-05
A14C A39G C58G | 5e-05 ± 1.9e-05
U30C C61U U65A | < 1e-05
A42G U65C | 0.000535 ± 0.00016
A12C A48G C58G | 4.08e-05 ± 1.8e-05
G59U G66C | < 1e-05
U31A A39U C70G | 0.000232 ± 7.5e-05

Variants of: B1
Experiment: self-cleavage kobs at 10000 uM GlcN6P; higher = faster cleavage; RNA array
Conditions: with glucosamine-6-phosphate
Summary of the method: as §1

Variant | self-cleavage kobs at 10000 uM GlcN6P [s⁻¹]
C11U A15G G43A C67G | 0.000119 ± 3.5e-05
U30A A33U C34A A36C G37C U57G | < 1e-05
A12G C16U G29A G40A A42U U45G | 8.82e-05 ± 1.6e-05
U31A U47C U56C | 0.000333 ± 6.1e-05
A6U A15G A53G | 0.000262 ± 5.8e-05
C11U C16U A53C C68A C70G | < 1e-05
A15C A23C | 0.00556 ± 0.0014
A12U U65G C70A | 0.000122 ± 2.2e-05
U46G U55C G66A | 0.00269 ± 0.00067
G35A C50A U55C G62A A64U | < 1e-05
C10U U45A | 2.12e-05 ± 8.6e-06
G9U U30A G38A G40C U56A C70A | < 1e-05
C10G A33G G51U | < 1e-05
G51U G59C G66U | < 1e-05
A39U U46G C70A | 0.000162 ± 3.2e-05
G13U A14G U47C | 0.000208 ± 5.4e-05
C34U G35A | < 1e-05
G13U G35A U57A U65G | < 1e-05
C11G U31A A42C | < 1e-05
C34U U45G | < 1e-05
A14C A39G C58G | 8.88e-05 ± 1.6e-05
